± gives the uncertainty stated by the source.
Assay: amyloid nucleation score (Sup35N fusion, yeast selection) (log enrichment); library NNK3; higher = more nucleation; inactive = no reads after selection
How it was run: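 Plasmid inserts were Illumina-sequenced at input and output from psi-negative yeast expressing Sup35N fused to peptides of 20 random codons. The yeast were induced with 100 μM copper sulfate for 24 hours and grown 7 days at 30°C on medium lacking adenine and uracil, and sequences with under 100 input reads were excluded. Nucleation score is the DiMSum log enrichment of output over input reads, centred on the mode score of non-aggregating sequences.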

| Substance | amyloid nucleation score |
| --- | --- |
| WFLSLLSQLGYGQVFVDFIP | inactive |
| WGLRFFIWQPRDMFSACCTC | 1.6 ± 0.11 |
| WGMLRTTT | -0.567 ± 1.5 |
| WGSLMFRVYTKMFEALERVL | inactive |
| WGVSLLVFHVTKQVRNRFYY | inactive |
| WHNMSMMKSVPTYSGESHTR | 0.97 ± 0.18 |
| WHSMSCFSPKLGWDQFPVLR | inactive |
| WIGRTLLDSYDGRFSIAIRD | inactive |
| WIKLNLTYAHWWNMV | inactive |
| WILLGRSSQWSWASGGNSGQ | 1.5 ± 0.092 |
| WILSYLDNCARSRQ | inactive |
| WIRYTFYQNFRIL | -0.744 ± 0.8 |
| WISSGDIGRVVDWIQVCIEP | inactive |
| WISSSGIPFDRYLLWYNSVG | inactive |
| WIYGYAVSLRSLYGLNLSM | inactive |
| WKAFNVTPFRGWVNVAVLA | inactive |
| WLCWQHSDLMNRDCNGLTLG | inactive |
| WLESHGDHGFNEKDSWWPYF | inactive |
| WLFMIARTYR | inactive |
| WLFRGVVRNRRALARGIRAG | inactive |
| WLHSGYGSNLPKATMRYCPN | inactive |
| WLIFYVYIVGDPAWLLVFMS | inactive |
| WLLEKYKLCMGWFFYSDFLT | inactive |

| Substance | amyloid nucleation score |
| --- | --- |
| WLNKWTHGVIANFYVVSGHP | 1.64 ± 0.075 |
| WLSYKSH | 0.392 ± 0.54 |
| WLVKGPVCKGSAS | -0.116 ± 1.1 |
| WLVYPC | inactive |
| WMVYDSLILFHDVRRSYLPM | inactive |
| WNGILHMMVGGLKTLIGMDY | inactive |
| WNLFDHRIGNKQRNGYDVYE | inactive |
| WNLHLLICEKSHTMEVMLLR | inactive |
| WNVPGVHCCIWVTRWEMGPT | 2.72 ± 0.078 |
| WNVWVLPIFIAFGLEPPRLE | 2.62 ± 0.059 |
| WNYHFPSS | 0.339 ± 0.37 |
| WPAVEKSLRRECFIVLRPFG | inactive |
| WPGNWSQFNQCWCRETTCYV | inactive |
| WPIATTMSKGVCVRRVRGRD | -0.411 ± 0.69 |
| WPLTCCDFSPSDSAIGRM | inactive |
| WPSLYHQMYGVYLGLLVILK | inactive |
| WQCNCGASICASHKKCANMN | 0.128 ± 0.3 |
| WRDRNF | 1.3 ± 0.15 |
| WRHDMSIFQAQLSTLVGI | inactive |
| WRLEL | inactive |
| WRSMAFPVVK | 0.988 ± 0.13 |
| WRTSMVASILRVRWEYLKWK | inactive |
| WSCESNDVHSCWWWLGGFNT | inactive |

| Substance | amyloid nucleation score |
| --- | --- |
| WSLMCRVAYRYGRVRNSKSG | inactive |
| WSLPSRLIRDVGSSWIYFCL | inactive |
| WTGFFCNAVKTTTGFNALFL | inactive |
| WTKECISIGRTWIYRRVGRG | 0 ± 0.59 |
| WTLRFLVKGSRCQFVAP | inactive |
| WVCPCKSGMSQNWRFYNPSR | inactive |
| WVDFFMFWGFAMNENKWFVH | inactive |
| WVDFTTWLKFVFRSSIHYLL | 0.012 ± 0.68 |
| WVESESQETHHIAM | -0.113 ± 1 |
| WVKNLVFEGHVGA | inactive |
| WVLDSERQMANSLWSGGGLA | inactive |
| WVMCFVAWCSAFLRTNFIDM | inactive |
| WVQVCCVNTNGRSFQLEGSI | 1.36 ± 0.097 |
| WVRSFMSLCFW | 0.974 ± 0.089 |
| WVVPSWCHSFPLMIIKRTCC | inactive |
| WWAISTLGMGNQLFLGVPRY | inactive |
| WWDTLIAGSLPKLTWNQKTG | inactive |
| WWTLKPGESVVRGLRVCGAP | inactive |
| WYGLA | inactive |
| WYIFFMEVMAGRY | inactive |
| WYLSYSTIAFHYWEFYGYAD | inactive |
| WYNDVMEVESLISYVDFFRE | inactive |
| WYVYTNIRNVSYDIFDNKKF | 1.49 ± 0.11 |

| Substance | amyloid nucleation score |
| --- | --- |
| WYWSLA | -0.174 ± 0.59 |
| YACRMKEFYGCILSRVRVWL | inactive |
| YAFISWNS | inactive |
| YAFLTYFSKVIDSVF | 1.33 ± 0.076 |
| YAGSCK | inactive |
| YANDANSCDWCICAFDRRSC | inactive |
| YANFVRYNRLVKDRAVRSPK | inactive |
| YARHSLDMRTSRDLTTLLGL | inactive |
| YASVRVGMPSCDECGMFCLE | inactive |
| YAVLNELVTRSCLYAVSFTI | inactive |
| YAYEIRRLT | inactive |
| YCIVLKYNQLLSTMSANNMY | 1.19 ± 0.1 |
| YCLFASMKDDAQGTQNCDRS | inactive |
| YCPRLRVRVCWFGTSSLDFQ | 0.862 ± 0.16 |
| YCSIMYVCNKILFNAAKARL | inactive |
| YCTYN | inactive |
| YCVMNSAINSLRSMAIWSFA | inactive |
| YCVSGMVMCCH | inactive |
| YDCMSRVLAMARATMCRLGD | inactive |
| YDKVFLPLGWHWPERPMGQT | inactive |
| YDLTFVGWMDYCNLPMVRLI | inactive |
| YDNLTARESSYFIFFCFLVY | inactive |
| YDNVDNYTTEISVNGCLMMN | inactive |

| Substance | amyloid nucleation score |
| --- | --- |
| YDSRWLDGSACKNKVQFGCQ | inactive |
| YDSVNLSLVLHSKRHYAYCA | inactive |
| YDSYTGRHNKLILRM | inactive |
| YDTHWTVCLLSTCLTL | inactive |
| YDYTRCLLYFVALRYQGGNS | inactive |
| YEARSWE | inactive |
| YETVMFSS | inactive |
| YEVPFSNASWRDGQMRCRCS | inactive |
| YEVSTRRRVM | inactive |
| YFANTVRTFLVLLQAFVLVV | inactive |
| YFCSCFRFSLNN | 2.8 ± 0.062 |
| YFDSWTSMSAYYMGSFHW | inactive |
| YFEVSLIRLYHEKTTTRMVY | inactive |
| YFFIPLMF | 0.725 ± 0.14 |
| YFGLALKSFGTLM | 0.876 ± 0.19 |
| YFISRCIWLVKSYREIELRW | inactive |
| YFKNGNALCKAFKKRISRKD | inactive |
| YFLKDKPVNRMIQ | 1.75 ± 0.083 |
| YFLNSQVSNLLGS | inactive |
| YFQTIVFRGTSGYCIVNQQV | 1.97 ± 0.1 |
| YFRAFMFETS | inactive |
| YFRANVRLKLEVMQRKKSPS | 2.28 ± 0.075 |
| YFSLWVLSYFLEAPLSLRNN | inactive |

| Substance | amyloid nucleation score |
| --- | --- |
| YGGNSIY | inactive |
| YGMGSGTTMVCPKVAWG | inactive |
| YGRDQSRYYLYSSMGEV | 0.148 ± 0.72 |
| YGSDGHHLA | inactive |
| YGSRW | inactive |
| YGVSMVVENYL | inactive |
| YHLDFMMGINSFRRVKAEPG | inactive |
| YHTARFGIKFLLRM | inactive |
| YHTAWWAEMCIDIKNGEL | inactive |
| YHTPCSTSDVARRGRYSRRD | inactive |
| YIAFCSRDSFRLVMRHNSGI | inactive |
| YIAVG | -0.483 ± 0.75 |
| YIEYIWWRLSSWLRSMKGLR | inactive |
| YIFRIHGPLPILHTRYPIRR | inactive |
| YIIICLGMWCYSNVGSKTGT | inactive |
| YILRFSWFIYLIRQWSNSGP | inactive |
| YIMDLKITANVLTYVACARR | 1.4 ± 0.097 |
| YIQITQMAALARLYIYMRMC | inactive |
| YIRLGWNVSWMLSSSEYVSH | 0.853 ± 0.12 |
| YIRVNTILDLD | inactive |
| YIRVVNAPVCTGNCLQDAYL | inactive |
| YISLDVTSIVGFVENIKQCV | 1.65 ± 0.068 |
| YISSVQGCPMEGGLPKSSAS | inactive |

| Substance | amyloid nucleation score |
| --- | --- |
| YIVWCHVVWLADCR | inactive |
| YIYLTQGTARNIDYT | 0.047 ± 0.43 |
| YIYNSLLYI | inactive |
| YIYTFYSVSY | 0.201 ± 0.17 |
| YIYWQRTTSRVLERSVILNV | inactive |
| YKHFYSFFCISFS | 1.88 ± 0.08 |
| YKNIFSWSPNSWTYKCSVNN | inactive |
| YKNKTSNMLICNAF | inactive |
| YKNSGFNLFNRVGNWMGVKL | inactive |
| YKSDSLLRSSLLTELTPIHF | inactive |
| YKTRTKKVS | inactive |
| YKYLLFAFLETLGQWYLYVE | inactive |
| YLDFDRMFVQCEFCLTDLDL | 0.59 ± 0.13 |
| YLESGLTS | inactive |
| YLFSSMLVILTCFRT | inactive |
| YLGESWTVPALYVRSDMMFV | inactive |
| YLKGTMSDSKNGPYDRGKLT | inactive |
| YLMYLGSFSAMLREKWQL | inactive |
| YLNFIGTLEV | inactive |
| YLNSYQDIYVRCVLELLYSS | inactive |
| YLNVVWYGALTWSDARFRNL | inactive |
